Laboratory results published in patent US20190292245A1 (published 2019).
Read-outs that look alike come from different tables or passages of the source.

Assays:
[1] = biological target: T1, recombinant tau protein (full-length) (human, UniProt P10636 1-441); assay: SPR (Biacore)
[2] = biological target: T1, recombinant tau protein (full-length); assay: SPR (Biacore); remark: listed apart in the source

T1 sequence (P10636 other isoform, or with tags, fused parts or gaps): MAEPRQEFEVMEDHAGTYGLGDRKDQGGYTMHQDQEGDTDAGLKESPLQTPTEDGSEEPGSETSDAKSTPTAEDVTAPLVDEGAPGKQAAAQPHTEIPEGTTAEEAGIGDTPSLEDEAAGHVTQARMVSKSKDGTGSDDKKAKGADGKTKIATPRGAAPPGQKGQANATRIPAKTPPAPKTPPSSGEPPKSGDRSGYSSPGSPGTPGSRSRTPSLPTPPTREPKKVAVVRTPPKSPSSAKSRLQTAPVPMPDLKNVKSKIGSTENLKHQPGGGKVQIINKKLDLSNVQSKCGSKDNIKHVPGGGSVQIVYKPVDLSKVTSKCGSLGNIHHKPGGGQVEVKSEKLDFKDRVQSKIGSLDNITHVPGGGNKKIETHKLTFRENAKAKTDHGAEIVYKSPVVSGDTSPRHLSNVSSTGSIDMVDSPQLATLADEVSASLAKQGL

| Kd [1] | Kd [2] | Binder |
| --- | --- | --- |
| 48 nM | – | Armanezumab (antibody, V domains shown) VH: QVQLVQSGAEVKKPGASVKVSCKASGYTFTNHWMHWVRQAPGQGLEWMGAIDPGNSDTSYNQKFKGRVTMTRDTSTSTVYMELSSLRSEDTAVYYCARRDFFGGEYAVDYWGQGTLVTVSS VL: DIVMTQSPLSLPVTPGEPASISCRSSQSLVHSNGNTYLHWYLQKPGQSPQLLIYKVSNRFSGVPDRFSGSGSGTDFTLKISRVEAEDVGVYYCSQSTHVPWTFGQGTKVEIKR |
| – | 3.91 nM | 1C9 chimeric humanized antibody (antibody, V domains shown) VH: EVQLQQSGTVLARPGASVKMSCKTSGYTFTNHWMHWVKQRPGQGLEWIGAIDPGNSDTSYNQKFKGQAKLTAVTSASTAFMELSSLTNEDSAVYYCTRRDFFGGEYAVDYWGQGTSVTVSS VL: DVVMTQTPLSLPVSLGDQASISCRSSQSLVHSNGNTYLHWYLQKPGQSPKLLIYKVSNRFSGVPDRFSGSGSGTDFTLKISRVEAEDLGVYFCSQSTHVPWTFGGGTKLEIK |
| 9.51 nM | 3.39 nM | mouse monoclonal antibody 1C9 (antibody, V domains shown) VH: EVQLQQSGTVLARPGASVKMSCKTSGYTFTNHWMHWVKQRPGQGLEWIGAIDPGNSDTSYNQKFKGQAKLTAVTSASTAFMELSSLTNEDSAVYYCTRRDFFGGEYAVDYWGQGTSVTVSS VL: DVVMTQTPLSLPVSLGDQASISCRSSQSLVHSNGNTYLHWYLQKPGQSPKLLIYKVSNRFSGVPDRFSGSGSGTDFTLKISRVEAEDLGVYFCSQSTHVPWTFGGGTKLEIK |
